Results on two substances are retold here after PMC2270346.

The target in the experiment is mouse Wnt3a, His-tagged (mouse) (UniProt P27467).
Chain of UniProt P27467 (P27467 19-352): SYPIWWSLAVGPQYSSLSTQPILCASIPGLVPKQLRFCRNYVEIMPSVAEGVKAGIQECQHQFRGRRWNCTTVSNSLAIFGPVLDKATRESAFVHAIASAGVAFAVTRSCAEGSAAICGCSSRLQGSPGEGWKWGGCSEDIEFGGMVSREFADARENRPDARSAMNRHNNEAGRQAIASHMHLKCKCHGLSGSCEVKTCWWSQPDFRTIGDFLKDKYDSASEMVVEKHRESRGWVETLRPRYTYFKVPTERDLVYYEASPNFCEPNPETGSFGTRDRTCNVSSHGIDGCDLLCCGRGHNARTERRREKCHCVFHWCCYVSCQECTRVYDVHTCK

“human FZC18 module, myc-tagged (domain or fragment)” gave a suppression of Wnt3a-induced beta-catenin-TCF-regulated transcription (SUPER8XTOPFLASH reporter) in HEK293T and Huh-7 cells cotransfected with Wnt3a greater than 80%.
In turn, “human V3Nter, V5-tagged (domain or fragment)” returned a suppression of Wnt3a-induced beta-catenin-TCF-regulated transcription (SUPER8XTOPFLASH reporter) in HEK293T and Huh-7 cells cotransfected with Wnt3a greater than 80%.
